Key:
GFP-Nup62 = assay: Deglycosylation of GFP-Nup62 co-expressed with OGA constructs (anti-EPEA enrichment, RL2 immunoblot); format: cell-based, human; conditions: co-expressed in HEK 293T cells
Protocol: (§1) HEK 293T cells were cultured in Dulbecco's Modified Eagle Medium (DMEM, Cat #11995073) supplemented with penicillin (50 μg/mL) and streptomycin (50 μg/mL) along with 10% (v/v) FBS. Transfections of all plasmids in this study were performed using TransIT-PRO® (Mirus Bio, Cat #MIR 5740) according to the manufacturer's instructions.
Glycoproteins Nup62, Sp1, JunB, c-Jun were subcloned into pcDNA3.1 vector with a GFP and a Flag-tag or a BC2 tag in the N-terminus and an EPEA tag in the C terminus respectively, unless otherwise noted. For all split OGA constructs with or without the fusion of nanobody GFP, N fragments were tagged with myc tag and C fragments were tagged with HA tag respectively. Human SP1 cDNA ORF plasmid (Cat #HG12024-G), human c-Fos cDNA ORF plasmid, and human OGT cDNA ORF cloned with a C-terminal His tag (Cat #HG11279-M) were purchased from Sino Biological. For subcloning, PCR fragments were amplified using Q5 High-Fidelity 2× Master Mix (New England BioLabs, Cat #M0492S). The vectors were double-digested and ligated to gel-purified PCR products by T4 ligation using T4 DNA ligase (New England BioLabs, Cat #M0202S) or by Gibson assembly using Gibson Assembly Master mix (New England BioLabs, Cat #E2611L). c-Fos was subcloned into a pcDNA3.1 vector with a 14-residue Ubc tag (amino acids: QADQEAKELARQIA (SEQ ID NO: 11)), Flag tag, and EPEA tag at the C terminus. All nanobody DNA fragments were synthesized by IDT.
After 36-48 h of transfection, cells were harvested and washed with PBS once. Cells were lysed with M-PER lysis buffer containing 1× protease inhibitor cocktail and 10 μM Thiamet-G unless otherwise noted. Protein concentrations were determined by the BCA assay kit (G-Biosciences, 786) on a multi-mode microplate reader FilterMax F3 (Molecular Devices LLC, Sunnyvale, CA).
For immunoprecipitation of proteins with the C-terminal EPEA tag, cell lysates with equal amounts of protein were diluted with PBS and incubated with C-tag affinity matrix (Thermo Scientific) for 1 h at room temperature, with end-to-end rotation, following the manufacturer's instructions. After washing three times with PBS buffer, the enriched proteins were eluted with SDS sample buffer and subjected to SDS-PAGE.
For immunoblotting analysis, proteins were transferred to a nitrocellulose membrane using iBlot (Thermo Scientific). Membranes were blocked with Tris buffered saline containing 0.1% Tween-20 and 5% BSA and incubated with the primary antibodies (1:1000 dilution) and the secondary antibodies (1:10,000 dilution) sequentially. Immunoblot images were captured by Azure Imager C600. Analysis of immunoblots was conducted with Fiji ImageJ. All IR fluorescence western blot images are converted into grayscale images by Fiji ImageJ. The unsaturated exposure of immunoblot images was used for quantification with the appropriate loading controls as standards. Statistical analysis of the data was performed with Prism 8, using data from at least three independent experiments.

GFP-Sp1 = assay: Deglycosylation of GFP-Sp1 co-expressed with OGA constructs (anti-EPEA enrichment, immunoblot); format: cell-based, human; conditions: co-expressed in HEK 293T cells
Protocol: as §1
Glycoproteins Nup62, Sp1, JunB, c-Jun were subcloned into pcDNA3.1 vector with a GFP and a Flag-tag or a BC2 tag in the N-terminus and an EPEA tag in the C terminus respectively, unless otherwise noted. For all split OGA constructs with or without the fusion of nanobody GFP, N fragments were tagged with myc tag and C fragments were tagged with HA tag respectively. […]
After 36-48 h of transfection, cells were harvested and washed with PBS once. […] Protein concentrations were determined by the BCA assay kit (G-Biosciences, 786) on a multi-mode microplate reader FilterMax F3 (Molecular Devices LLC, Sunnyvale, CA). […]
For immunoblotting analysis, proteins were transferred to a nitrocellulose membrane using iBlot (Thermo Scientific). […] All IR fluorescence western blot images are converted into grayscale images by Fiji ImageJ. The unsaturated exposure of immunoblot images was used for quantification with the appropriate loading controls as standards. […]

OGT = molecular target: T1, OGT (Homo sapiens, UniProt O15294); assay: Co-immunoprecipitation of OGA constructs with His-tagged OGT; format: cell-based; conditions: OGT-His co-transfected in HEK 293T cells
T1 construct: host or cells: HEK 293T
T1 sequence (O15294 1-1046): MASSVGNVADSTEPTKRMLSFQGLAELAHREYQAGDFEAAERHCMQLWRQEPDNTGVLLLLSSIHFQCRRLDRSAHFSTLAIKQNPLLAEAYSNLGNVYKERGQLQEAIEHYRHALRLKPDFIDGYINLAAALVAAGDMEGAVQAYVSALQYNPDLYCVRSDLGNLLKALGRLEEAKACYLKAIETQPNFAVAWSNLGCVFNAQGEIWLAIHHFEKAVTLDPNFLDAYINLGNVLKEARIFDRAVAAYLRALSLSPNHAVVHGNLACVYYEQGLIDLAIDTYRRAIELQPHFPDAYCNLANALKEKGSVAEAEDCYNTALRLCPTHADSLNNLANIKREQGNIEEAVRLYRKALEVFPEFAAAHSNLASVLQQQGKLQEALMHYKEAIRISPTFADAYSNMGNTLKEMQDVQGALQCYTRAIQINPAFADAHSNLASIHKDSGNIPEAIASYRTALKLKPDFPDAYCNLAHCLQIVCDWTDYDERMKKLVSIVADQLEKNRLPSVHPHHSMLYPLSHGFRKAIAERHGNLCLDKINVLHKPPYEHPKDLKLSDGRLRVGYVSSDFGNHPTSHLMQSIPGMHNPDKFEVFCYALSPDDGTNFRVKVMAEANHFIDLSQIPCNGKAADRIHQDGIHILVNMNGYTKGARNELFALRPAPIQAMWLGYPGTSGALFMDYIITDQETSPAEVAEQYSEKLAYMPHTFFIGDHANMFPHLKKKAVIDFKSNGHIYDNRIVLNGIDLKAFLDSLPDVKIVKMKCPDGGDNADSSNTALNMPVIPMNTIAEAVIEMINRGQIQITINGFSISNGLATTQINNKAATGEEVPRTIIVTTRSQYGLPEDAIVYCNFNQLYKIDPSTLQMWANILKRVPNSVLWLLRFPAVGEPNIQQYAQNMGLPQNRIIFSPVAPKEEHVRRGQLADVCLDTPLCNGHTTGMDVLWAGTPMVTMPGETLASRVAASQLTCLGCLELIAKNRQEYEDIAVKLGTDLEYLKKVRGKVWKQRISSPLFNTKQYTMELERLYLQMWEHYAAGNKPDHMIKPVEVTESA
Protocol: For immunoprecipitation of proteins with His tag, cells were lysed in a buffer containing 50 mM Tris HCl pH 8.0, 150 mM NaCl, 1% Triton X-100, 5% glycerol, 1× protease inhibitor cocktail and 10 μM Thiamet-G on ice for 20 min. Cell lysates with equal amounts of protein were diluted with wash buffer (50 mM Tris HCl pH 8.0, 150 mM NaCl, 0.01% Tween-20) and incubated with pre-washed His-Tag Dynabeads (Invitrogen, 10103D) at room temperature for 20 min with mixing, following the manufacturer's instructions. After washed 4 times with wash buffer, the enriched proteins were eluted with elution buffer (300 mM Imidazole, 50 mM Tris HCl pH 8.0, 150 mM NaCl, 0.01% Tween-20) on a shaker for 10 min at room temperature.

B1: split OGA (N2+C3): split OGA fragments N2 and C3 without nanobody (protein)
chain 1: MEQKLISEEDLAIAMVQKESQATLEERESELSSNPAASAGASLEPPAAPAPGEDNPAGAGGAAVAGAAGGARRFLCGVVEGFYGRPWVMEQRKELFRRLQKWELNTYLYAPKDDYKHRMFWREMYSVEEAEQLMTLISAAREYEIEFIYAISPGLDITFSNPKEVSTLKRKLDQVSQFGCRSFALLFDDIDHNMCAADKEVFSSFAHAQVSITNEIYQYLGEPETFLFCPTEYCGTFCYPNVSQSPYLRTVGEKLLPGIEVLWTGPKVVSKEIPVESIEEVSKIIKRAPVIWDNIHANDYDQKRLFLGPYKGRSTELIPRLKGVLTNPNCEFEANYVAIHTLATWYKSNMNGVRKDVVMTDSEDSTVSIQIKLENEGSDEDIETDVLYSPQMALKLALTEWLQEFGVPHQYSSR
chain 2: MAYPYDVPDYAAIAEKPLYTAEPVTLEDLQLLADLFYLPYEHGPKGAQMLREFQWLRANSSVVSVNCKGKDSEKIEEWRSRAAKFEEMCGLVMGMFTRLSNCANRTILYDMYSYVWDIKSIMSMVKSFVQWLGCRSHSSAQFLIGDQEPWAFRGGLAGEFQRLLPIDGANDLFFQPP
With B1 the “deglycosidase activity / O-GlcNAc modification level on GFP-Nup62” value (GFP-Nup62) was “limited substrate activity”, the “deglycosidase activity / O-GlcNAc modification level on GFP-Nup62” value (GFP-Nup62; listed as N2-C3 pair) was “significantly reduced activity” and the “deglycosidase activity / O-GlcNAc level on GFP-Sp1” value (GFP-Sp1) was “weak inherent deglycosidase activity”. The “interaction with OGT” value (OGT) was “unable to interact with OGT”.

Reference: patent US20240043528A1, “NANOBODY-OGA FUSIONS AND USES THEREOF” (President and Fellows of Harvard College, priority 2020, published 2024)
